# From the supplement of paper PMC9170038
# Tested on: MS2 coat protein
# Experiment: apparent KD of MS2 coat protein; designed switch direction (-1 OFF switch, 1 ON switch): -1; higher = weaker reporter binding
# Outline: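 On Illumina chips, designed RNA switches with common flanks were made by stalled E. coli RNA polymerase. Titrations with SNAP-549-labelled MS2 coat protein, doubling from 0.7 or 1.5 nM to 3 µM, were done with no input, with 200 uM small-molecule ligand, or with an oligonucleotide input. Apparent KD is the median per design over clusters, from curve fits of normalised cluster fluorescence.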
# [1] = Eterna round: R95, input ligand: FMN 200 uM
# [2] = Eterna round: R95, input ligand: microRNA oligo, concentration not stated
# [3] = Eterna round: R95, input ligand: none
# [4] = input ligand: microRNA oligo, concentration not stated
Sequence,apparent KD of MS2 coat protein [1],apparent KD of MS2 coat protein [2],apparent KD of MS2 coat protein [3],apparent KD of MS2 coat protein (input ligand: FMN 200 uM),apparent KD of MS2 coat protein (input ligand: none),apparent KD of MS2 coat protein [4]
AGAAAGCAAGGAUAUACAAGUAAACGACGGAAAGUAGAGAGACAUGAGGAUCACCCAUGUAGAAGGUGCGAGAG [JR_Exclu2_Sub034] (puzzle: Exclusion 2),24.7 nM,26.1 nM,26.2 nM,–,–,–
"AGCCCUGCAGGAUAUGCCGAGGAUAACAUGAGGAUCACCCAUGUGACCGAUUGUUAGACUGCAGAAGGGCAUGGGA [salish99_ex5_r4_303] (Eterna round: R97, puzzle: Exclusion 5)",–,–,–,81.7 nM,509 nM,–
"GCUAGAGCAGGAUAUCUAGAUCCUCACAUGAGGAUCACCCAUGUAGUCGAAAGACUAAGAAGAGAAGGGCUCUAGC [Omei Ex5 E17] (Eterna round: R97, puzzle: Exclusion 5)",–,–,–,133 nM,8.81 nM,–
"GGAUCAUAUGUCAGGAUAUGCUGGACCUUGGUUCAGCAGAAGGGACAUGAGGAUCACCCAUGUCAUGGAGAUCC [Mat - Exclusion 4 - Eli Mod - D53] (Eterna round: R97, puzzle: Brourd's mod of Exclusion 4)",–,–,–,270 nM,415 nM,–
"CUAUAAGGUGUUAGGAUAUCGGCUCGAGGUACUAGCGAGAAGGAACAUGAGGAUCACCCAUGUGGUCAUGAUUU [Eternabot (L2) Solution 60] (Eterna round: R97, puzzle: Brourd's mod of Exclusion 4)",–,–,–,152 nM,139 nM,–
"GUCAGCUCGUCAGGAUAUAUAUACAUGAGGAUCACCCAUGUAAGAUCAGGCUUCGGCCAAUGUAUAUAGAAGGGACGAGCUGAU [ENG2/11-B2] (Eterna round: R96, puzzle: Exclusion NG 2)",–,–,–,721 nM,810 nM,458 nM
CUUUUGUGAGGAUAUUAGUAGUAAAUAAAUAAAAUUACUUCUGAGAAGGCACAUGAGGAUCACCCAUGUUCCUC [salish99_ex4_r3_063] (puzzle: Exclusion 4),–,36.9 nM,–,–,–,–
"CUGCUCCGUGUAGGAUAUGCAUACUCCCACUAUGCAGAAGGACAUGAGGAUCACCCAUGUAUGUUAUUAUCACGUGUAGCGUCC [Design 17] (Eterna round: R96, puzzle: Exclusion NG 1)",–,–,–,21.1 nM,21.4 nM,14.2 nM
"CUCGCUGUGGUUAGGAUAUGUGGGUUAGCAGGCGCAUAGAAGGAACAUGAGGAUCACCCAUGUGGGUUGGUGCG [Eternabot (L2) Solution 88] (Eterna round: R97, puzzle: Brourd's mod of Exclusion 4)",–,–,–,39.4 nM,62.7 nM,–
"UAAUUAAUAAGAUCAAUUAAUUAACAUGAGGAUCACCCAUGUGAGGAUAUCAGCUCGAUUAGAGCUGAGAAGGCACAAUAAUUA [ExNG3/17-C1] (Eterna round: R96, puzzle: Exclusion NG 3)",–,–,–,–,–,39 nM
"GUAUAACAUGAGGAUCACCCAUGUCAGGAUAUGCGAAUUUCAUCAAAAGAUGAAAUUUGCAGAAGGGACUGUAC [Omei Ex1 A25] (Eterna round: R97, puzzle: Exclusion 1)",–,–,–,73.9 nM,67.6 nM,–
"AAGAAGCGAGGAUAUGCAAAAGAAAAGAAGAAGAAGAAAGAACAUGAGGAUCACCCAUGUAGAAGGCGCAAGAA [Mine, too!] (puzzle: Exclusion 2)",19.8 nM,20.8 nM,22.2 nM,–,–,–
"AUCGUGUGAGGAUAUCGAUCAUGGAGGUCUAGGUCCAUGCGCGAGAAGGCACAUGAGGAUCACCCAUGUAAUGG [jl-ex4-4.30 ViennaUCT mod] (Eterna round: R97, puzzle: Exclusion 4)",–,–,–,65.3 nM,66.5 nM,–
GAGGAGCAAGGAUAUACGAGGAUAUGGAAGGUUGGAGAGUGACAUGAGGAUCACCCAUGUAGAAGGUGCAAGGG [JR_Exclu2_Sub096] (puzzle: Exclusion 2),65.9 nM,91.8 nM,131 nM,–,–,–
